The values below come from article PMC4103810, “Flexibility of PCNA-Protein Interface Accommodates Differential Binding Partners” (PLoS ONE, 2014).

Data set [1] deals with T1, recombinant PCNA protein (Homo sapiens, UniProt P12004). Put plainly: ITC. Conditions: cited from earlier work.
In data set [2] the target is T1, recombinant PCNA protein. Put plainly: Fluorescence polarization competition assay (displacement of FITC-PL peptide from PCNA). Also noted: (His)6 (N); TEV protease recognition site (N); made in house; host or cells: E. coli BL21(DE3). Type of data set: binding. As to the method:
(3) and represented as mean ± standard error of mean (Y). Fraction of the FITC-PL peptide bound (Y) was plotted as a function of the logarithm of the 12 amino acid peptide antagonist concentration (X), and IC50 values were determined by fitting the data to Eq. […] Anisotropy values were also analyzed using complete and incomplete binding models without non-specific effects as outlined in Roehrl et al..
For orientation: In fluorescence polarisation assays a small probe gives low polarisation when free and higher when bound to something large.

Data set [3] in a line: Aggregation observed in the fluorescence polarization competition assay. Type of data set: physicochemical. The conditions noted are these: FP competition assay, binding buffer; result in words. As to the method: Competition assays were analyzed by fluorescence polarization on a DTX880 Multimode plate reader (Beckman Coulter) using an excitation of 485 nm and an emission filter at 535 nm at 30°C. Anisotropy values (N = 4) were statistically evaluated using Grubbs' test for outliers at a significance level of 0.05 and converted to fraction of FITC-PL peptide bound (fb) using Eq. (3) and represented as mean ± standard error of mean (Y).

For data set [4], the target named is T2, recombinant PCNA protein (human, UniProt P12004 1-261).
T2 construct: PCNA (proliferating cell nuclear antigen), human; The vector has a TEV protease site after the (His)6 tag, and no cleavage is described; also called (His)6-PCNA; source: E. coli BL21(DE3), purified (Ni-NTA, dialysis)
The experiment in a line: fluorescence polarisation; competition: increasing unlabeled 12-mer peptide against 50 nM N-terminal FITC-PL peptide and 1 µM PCNA (monomer concentration); 25 mM HEPES pH 7.4, 10% glycerol, 0.01% Triton X-100; 30 min at room temperature, read at 30°C; fraction of FITC-PL bound fitted to the complete (Eq. 6) or incomplete (Eq. 7, four-state) competition model of Roehrl et al.; estimated dissociation constants. Conditions: both partners purified.

Data set [5] addresses T3, recombinant PCNA protein (N-terminal (His)6-PCNA) (human, UniProt P12004 1-261).
T3 construct: PCNA, human; amplified by PCR from a template plasmid (Genecoepia) into pEV-L8, which has an N-terminal (His)6-tag and a TEV protease recognition site; No TEV cleavage is described; also called human PCNA; source: E. coli BL21(DE3), purified (Ni-NTA)
Put plainly: fluorescence polarisation; competition: increasing unlabeled peptide with 50 nM FITC-PL peptide and 1 µM PCNA (monomer concentration); 25 mM HEPES pH 7.4, 10% glycerol, 0.01% Triton X-100; 30 min at room temperature, read at 30°C; Ki from a modified Cheng-Prusoff equation. Conditions: both partners purified.

Data set [6] deals with T3, recombinant PCNA protein (N-terminal …). The experiment in a line: fluorescence polarisation; direct binding: increasing recombinant PCNA (monomer concentration) added to 50 nM FITC-PL peptide; 25 mM HEPES pH 7.4, 10% glycerol, 0.01% Triton X-100; 30 min at room temperature, read at 30°C; fit with a Hill slope. The conditions noted are these: both partners purified.
For data set [7] the target is unchanged. Put plainly: fluorescence polarisation; competition: increasing unlabeled peptide with 50 nM FITC-PL peptide and 1 µM PCNA (monomer concentration); 25 mM HEPES pH 7.4, 10% glycerol, 0.01% Triton X-100; 30 min at room temperature, read at 30°C; Ki from a modified Cheng-Prusoff equation. Conditions: both partners purified. The source holds these as a separate data set.

No end group written: not given here. *: point of attachment. FITC = O=C1OC2(c3ccc(O)cc3Oc3cc(O)ccc32)c2ccc(NC(=S)*)cc21; Ahx = NCCCCCC(=O)O

T1 sequence (P12004 whole entry): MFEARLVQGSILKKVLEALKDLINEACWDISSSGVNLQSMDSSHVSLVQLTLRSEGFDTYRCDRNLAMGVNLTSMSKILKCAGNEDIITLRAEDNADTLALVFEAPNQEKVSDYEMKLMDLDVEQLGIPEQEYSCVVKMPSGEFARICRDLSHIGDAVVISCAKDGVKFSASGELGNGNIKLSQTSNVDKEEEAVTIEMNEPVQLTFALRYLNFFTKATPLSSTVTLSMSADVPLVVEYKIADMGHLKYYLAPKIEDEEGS
T2 sequence (P12004 whole entry): as above
T3 sequence (P12004 whole entry): as above

As to “p21 12-mer PIP box peptide PIP box (from UniProt P38936)”, the Kd in data set [1] is 640 nM.
As for “NRQVSITGFFQR [DNA polymerase δ (p66 subunit), 12-amino acid PIP Box peptide modeled after the p66 subunit of DNA polymerase δ]”, the “Hill Slope” value in data set [2] (Hill slope n of the fit to Eq. (4), 50 nM FITC-PL, 1 µM PCNA (monomer)) is reported as −1.2±0.2.
Regarding GVQRNHETAFQG [Mcl-1], the “aggregation of the tracer at higher concentrations” value in data set [3] was “not observed”. In data set [2] (result in words), the “binding to recombinant PCNA in the competition assay” value was “did not bind”.
In the case of RRQTSMTDFYHS-NH2 [p21], the Kd is 615 ± 251 nM in data set [2] (estimated dissociation constant of competitive ligand-PCNA interaction, Roehrl et al. binding models, Eq. (6)/(7), read-out: Kd2) and 3100 ± 200 nM in data set [2] (incomplete competition model (four state), Roehrl et al., Eq. (7), read-out: Kd3).

B1: Akt 12-mer reverse PIP Box peptide (peptide)
peptide: HRFFAGIVWQHV
notes: reverse PIP Box stretch of Akt, found by screening the human genome; Made on CLEAR Amide resin, so the C-terminus is probably an amide; source: synthetic peptide (solid phase, HPLC purified)
As to B1, the Kd in data set [4] was 2000 ± 400 nM.

B2: PI3K (p85α subunit) 12-mer PIP Box peptide mimic (peptide)
peptide: TLQYLLKHFFKL
notes: 12-mer modeled after the PIP Box of PI3-kinase p85α, found by a screen of the human genome; Synthesised on CLEAR Amide resin, so the C-terminus is probably an amide (surmised); also called p85α peptide; PI3-kinase (p85α regulatory domain); source: synthetic peptide (solid phase, HPLC purified)
One may read the IC50 as the concentration needed to halve the response being measured. As usually defined, the Ki is a measure of affinity in units of concentration, obtained from inhibition or displacement. For the molecule B2, in data set [5], the half-maximal inhibitory concentration (IC50) was 7500 ± 300 nM, the Ki was 2900 nM and the “fb at [peptide]max (fraction of FITC-PL bound)” value (shortened to “fb … (fraction of FITC-PL bound)”) came out at 0.

B3: p21 12-mer PIP Box peptide mimic (peptide)
peptide: RRQTSMTDFYHS
notes: 12-mer modeled after the C-terminal PIP Box of the tumor suppressor p21; Synthesised on CLEAR Amide resin, so the C-terminus is probably an amide (surmised); also called p21 peptide; p21 12-amino acid peptide; source: synthetic peptide (solid phase, HPLC purified)
For B3, in data set [5], the IC50 turned out to be 1800 ± 500 nM, the Ki was 477 nM and the “fb … (fraction of FITC-PL bound)” value was found to be 0.25.

B4: DNA polymerase δ (p66 subunit) 12-mer PIP Box peptide (peptide)
peptide: NRQVSITGFFQR
notes: PIP Box stretch of the p66 subunit of DNA polymerase δ (POLD3); Made on CLEAR Amide resin, so the C-terminus is probably an amide; source: synthetic peptide (solid phase, HPLC purified)
Take B4: the Kd in data set [4] is 20800 ± 4400 nM.

B5: Abl 12-mer PIP Box peptide (peptide)
peptide: PGQRSISLRYEG
notes: PIP Box stretch of Abl (ABL1), lying in the SH2 domain; Made on CLEAR Amide resin, so the C-terminus is probably an amide; source: synthetic peptide (solid phase, HPLC purified)
Take B5: the Kd in data set [4] was 52900 ± 14700 nM.

B6: PI3K (p85α subunit) 12-mer PIP Box peptide (peptide)
peptide: TLQYLLKHFFKL
notes: PIP Box stretch of the PI3-kinase p85α regulatory subunit (PIK3R1), found by screening the human genome; Made on CLEAR Amide resin, so the C-terminus is probably an amide; also called PI3-kinase (p85α regulatory domain); source: synthetic peptide (solid phase, HPLC purified)
As to B6, in data set [4], the Kd is 1600 ± 600 nM.

B7: DNA polymerase δ (p66 subunit) 12-mer PIP Box peptide mimic (peptide)
peptide: NRQVSITGFFQR
notes: 12-mer modeled after the PIP Box of the p66 subunit of DNA polymerase δ; Synthesised on CLEAR Amide resin, so the C-terminus is probably an amide (surmised); also called p66 peptide; source: synthetic peptide (solid phase, HPLC purified)
On to B7, for which, in data set [5], the IC50 came to 67900 ± 15800 nM, the Ki was found to be 28900 nM and the “fb … (fraction of FITC-PL bound)” value worked out at 0.

B8: N-terminal fluorescein isothiocyanate (FITC) labeled PL peptide (peptide)
peptide: {FITC-Ahx}-SAVLQKKITDYFHPKK
notes: Synthesised on CLEAR Amide resin, so the C-terminus is probably an amide (surmised); also called FITC-PL peptide; FITC-PL; source: synthetic peptide (solid phase, HPLC purified)
As for B8, the Kd in data set [6] was 760 ± 19 nM.

B9: unlabeled POGO-ligase (PL) peptide (peptide)
peptide: SAVLQKKITDYFHPKK
notes: Synthesised on CLEAR Amide resin, so the C-terminus is probably an amide (surmised); also called control PL peptide; source: synthetic peptide (solid phase, HPLC purified)
As to B9, in data set [7], the IC50 is 144 ± 13 nM. In addition, in data set [5], the IC50 is 145 ± 13 nM, the Ki was determined as 136 nM and the “fb … (fraction of FITC-PL bound)” value came out at 0.

B10: Abl 12-mer PIP Box peptide mimic (peptide)
peptide: PGQRSISLRYEG
notes: Synthesised on CLEAR Amide resin, so the C-terminus is probably an amide (surmised); also called Abl peptide; source: synthetic peptide (solid phase, HPLC purified)
In the case of B10, in data set [5], the IC50 was 71300 ± 12100 nM, the Ki stood at 30400 nM and the “fb … (fraction of FITC-PL bound)” value was 0.1.

B11: Akt 12-mer reverse PIP Box peptide mimic (peptide)
peptide: HRFFAGIVWQHV
notes: 12-mer modeled after the reverse PIP Box of Akt, found by a screen of the human genome; Synthesised on CLEAR Amide resin, so the C-terminus is probably an amide (surmised); also called Akt peptide; reverse-PIP Box Akt peptide; source: synthetic peptide (solid phase, HPLC purified)
Turning to B11, in data set [5], the IC50 turned out to be 8500 ± 4200 nM, the Ki turned out to be 3400 nM and the “fb … (fraction of FITC-PL bound)” value came to 0.06.
